T1: canine IL4 (Sino Biological Inc, Cat #70021-DNAE-5) (canine, UniProt O77762 25-132)
T1 sequence (looked up): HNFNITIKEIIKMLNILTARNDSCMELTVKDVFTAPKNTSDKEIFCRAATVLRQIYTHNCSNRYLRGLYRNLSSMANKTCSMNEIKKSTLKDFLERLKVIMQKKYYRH

B1: canine IL4RECD-IL13RECD-IgGB Fc (Fc fusion)
chain: SGSVKVLHEPSCFSDYISTSVCQWKMDHPTNCSAELRLSYQLDFMGSENHTCVPENREDSVCVCSMPIDDAVEADVYQLDLWAGQQLLWSGSFQPSKHVKPRTPGNLTVHPNISHTWLLMWTNPYPTENHLHSELTYMVNVSNDNDPEDFKVYNVTYMGPTLRLAASTLKSGASYSARVRAWAQTYNSTWSDWSPSTTWLNYYEPGGGSGTETQPPVTNLSVSVENLCTVIWTWDPPEGASPNCTLRYFSHFDNKQDKKIAPETHRSKEVPLNERICLQVGSQCSTNESDNPSILVEKCTPPPEGDPESAVTELQCVWHNLSYMKCTWLPGRNTSPDTNYTLYYWHSSLGKILQCEDIYREGQHIGCSFALTNLKDSSFEQHSVQIVVKDNAGKIRPSFNIVPLTSHVKPDPPHIKRLFFQNGNLYVQWKNPQNFYSRCLSYQVEVNNSQTETNDIFYVEEAKCQNSEFEGNLEGTICFMVPGVLPDTLNTVRIRVRTNKLCYEDDKLWSNWSQAMSIGENTDPTPKRENGRVPRPPDCPKCPAPEMLGGPSVFIFPPKPKDTLLIARTPEVTCVVVDLDPEDPEVQISWFVDGKQMQTAKTQPREEQFNGTYRVVSVLPIGHQDWLKGKQFTCKVNNKALPSPIERTISKARGQAHQPSVYVLPPSREELSKNTVSLTCLIKDFFPPDIDVEWQSNGQQEPESKYRTTPPQLDEDGSYFLYSKLSVDKSRWQRGDTFICAVMHEALHNHYTQESLSHSPGK
modifications: Biotinylated when captured on the tips in the sequential binding experiment; secreted from CHO cells, so glycosylated.

What was measured:
[1] = biological target: canine FcRn with a poly-His tag / canine B2M heterodimer complex (canine); assay: SPR (Biacore T200), pH 6.0; biotinylated FcRn/B2M immobilised, Fc as analyte
[2] = biological target: T1, canine IL4 (Sino Biological Inc, Cat …); assay: cell-based or functional assay

| Molecule | koff [1] | TF1 cell proliferation assay (CellTiter-Glo luminescence), IC50 by 4 parameter logistic fit [2] |
| --- | --- | --- |
| variant canine IgG-B Fc polypeptide L(23)S | 0.241 s⁻¹ | – |
| B1 | – | 2 nM |

From patent US20240270819A1 (ELANCO US, published 2024)
